Where two headings read alike, the source gives them in different places. Each block holds one binder with its values, some of them ahead of it.
Experiments:
[1] = molecular target: T1, human GPRC5D (G-protein coupled receptor family C group 5 member D) (human, UniProt Q9NZD1 1-345); test: cell-based or functional assay
[2] = molecular target: T1, human GPRC5D (G-protein coupled …); test: cell-based or functional assay; remark: listed apart in the source
[3] = molecular target: T2, human GPRC5D nanodisc (human, UniProt Q9NZD1 1-345); test: SPR, antibody captured by anti-human Fc, GPRC5D-nanodisc injected, 1:1 fit
T2 construct: Bought reagent; also called GPRC5D-nanodiscs (Acro, #GPD-H52D4)

[4] = molecular target: cyno GPRC5D nanodisc (cynomolgus monkey); test: as above
[5] = molecular target: T3, cynomolgus FcγRIII (cynomolgus, UniProt Q8SPW2 17-208, limits assumed); test: SPR, receptor captured by anti-his, antibody injected, 1:1 fit
T3 construct: His-tagged (captured on anti-his surface); construct not described; also called cy-RIII; FcgRIII

[6] = molecular target: T4, human FcγRIIIa 158V allele (human, UniProt P08637 17-208); test: as above
T4 construct: His-tagged (captured on anti-his surface); construct not described; The 158V allele differs from the 158F allele at that one position; also called Hu-RIIIa V; Hu-RIIIaV

[7] = molecular target: T5, cynomolgus FcγRI (cynomolgus); test: as above
T5 construct: His-tagged (captured on anti-his surface); construct not described; also called cy-RI; FcgRI

[8] = molecular target: T6, human FcγRIIIa 158F allele (human, UniProt P08637 17-208); test: as above
T6 construct: His-tagged (captured on anti-his surface); construct not described; also called Hu-RIIIaF; FcgRIIIa

[9] = molecular target: T7, human FcγRI (human, UniProt P12314 16-288, limits assumed); test: as above
T7 construct: His-tagged (captured on anti-his surface); construct not described; also called hu-RI; FcgRI

[10] = molecular target: T2, human GPRC5D nanodisc; test: SPR, antibody captured by anti-human Fc, GPRC5D-nanodisc injected, 1:1 fit; remark: listed apart in the source
[11] = molecular target: T8, cynomolgus FcγRIIb (cynomolgus); test: SPR, receptor captured by anti-his, antibody injected, steady-state fit
T8 construct: His-tagged (captured on anti-his surface); construct not described; also called cy-RIIb; FcgRIIb

[12] = molecular target: T9, human FcγRIIb/c (human, UniProt P31994 46-217, limits assumed); test: as above
T9 construct: His-tagged (captured on anti-his surface); construct not described; also called hu-RIIb/c; FcgRIIb
T9 sequence (looked up): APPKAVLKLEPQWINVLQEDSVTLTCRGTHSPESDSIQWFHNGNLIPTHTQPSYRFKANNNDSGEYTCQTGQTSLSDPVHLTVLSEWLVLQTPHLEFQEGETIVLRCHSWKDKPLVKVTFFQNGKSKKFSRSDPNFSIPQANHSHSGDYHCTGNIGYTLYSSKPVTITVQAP

[13] = molecular target: T10, human FcγRIIa (human, UniProt P12318 36-218, limits assumed); test: as above
T10 construct: His-tagged (captured on anti-his surface); construct and allele not described; also called hu-RIIa; FcgRIIa
T10 sequence (looked up): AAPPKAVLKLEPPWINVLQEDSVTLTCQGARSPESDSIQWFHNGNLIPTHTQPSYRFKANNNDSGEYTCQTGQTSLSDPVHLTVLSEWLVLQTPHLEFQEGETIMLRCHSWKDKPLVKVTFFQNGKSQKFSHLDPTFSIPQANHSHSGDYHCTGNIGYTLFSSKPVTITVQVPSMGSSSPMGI

[14] = molecular target: T11, cynomolgus FcγRIIa (cynomolgus); test: as above
T11 construct: His-tagged (captured on anti-his surface); construct not described; also called cy-RIIa; FcgRIIa

[15] = molecular target: T1, human GPRC5D (G-protein coupled …); test: flow cytometry on MM1.R cells
[16] = molecular target: T1, human GPRC5D (G-protein coupled …); test: flow cytometry on H929 cells

T4 sequence (P08637 17-208 F176V limits assumed): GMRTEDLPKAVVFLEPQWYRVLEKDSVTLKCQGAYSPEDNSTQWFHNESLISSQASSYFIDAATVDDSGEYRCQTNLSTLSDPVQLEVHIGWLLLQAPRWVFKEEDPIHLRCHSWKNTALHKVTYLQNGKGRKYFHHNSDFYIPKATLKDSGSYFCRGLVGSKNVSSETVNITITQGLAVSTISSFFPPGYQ
T1 sequence (Q9NZD1 whole entry): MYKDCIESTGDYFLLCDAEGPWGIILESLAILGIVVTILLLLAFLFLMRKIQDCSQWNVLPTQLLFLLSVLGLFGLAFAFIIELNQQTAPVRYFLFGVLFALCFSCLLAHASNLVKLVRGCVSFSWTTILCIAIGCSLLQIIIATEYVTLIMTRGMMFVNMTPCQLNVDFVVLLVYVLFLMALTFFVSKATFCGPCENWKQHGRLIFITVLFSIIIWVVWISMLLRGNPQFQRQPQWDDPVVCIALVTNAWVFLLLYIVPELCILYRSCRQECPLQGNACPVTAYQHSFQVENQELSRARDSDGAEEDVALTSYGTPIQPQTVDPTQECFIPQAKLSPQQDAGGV
T2 sequence (Q9NZD1 whole entry): as above
T6 sequence (P08637 17-208 limits assumed): as the sequence (P08637 17-208 F176V limits assumed) above, with V160F counted along it
T7 sequence (P12314 16-288 limits assumed): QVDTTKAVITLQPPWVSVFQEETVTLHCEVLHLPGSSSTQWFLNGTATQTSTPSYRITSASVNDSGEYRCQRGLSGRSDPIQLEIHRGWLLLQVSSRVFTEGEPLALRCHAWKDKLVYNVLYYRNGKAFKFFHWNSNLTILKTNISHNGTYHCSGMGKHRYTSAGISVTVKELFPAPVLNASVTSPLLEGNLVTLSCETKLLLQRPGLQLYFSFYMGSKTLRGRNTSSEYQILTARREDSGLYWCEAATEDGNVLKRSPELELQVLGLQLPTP
T3 sequence (Q8SPW2 17-208 limits assumed): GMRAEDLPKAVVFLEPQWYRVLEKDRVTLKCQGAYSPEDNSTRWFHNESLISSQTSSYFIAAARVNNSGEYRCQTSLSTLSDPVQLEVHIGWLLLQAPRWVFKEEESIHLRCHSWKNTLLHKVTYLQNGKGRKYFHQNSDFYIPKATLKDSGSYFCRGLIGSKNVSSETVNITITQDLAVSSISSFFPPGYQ

ADCC EC50 (nM), CD138+ MM patient plasma cells, Sample 1 [1]: 0.007 nM | ADCC EC50 (nM), CD138+ MM patient plasma cells, Sample 2 [1]: 0.09 nM | ADCC EC50 (nM), CD138+ MM patient plasma cells, Sample 6 [1]: 0.04 nM | ADCC EC50 (nM), CD138+ MM patient plasma cells, Sample 17 [1]: 0.64 nM | CDC EC50 (nM), CD138+ MM patient plasma cells, Sample 6 [1]: 40.5 nM | CDC EC50 (nM), CD138+ MM patient plasma cells, Sample 17 [1]: 35.5 nM | ADCC EC50, AMO-1 cells, primary healthy donor human NK cells [2]: 1.2 nM | ADCC EC50, H929 cells, primary healthy donor human NK cells [2]: 0.04 nM | ADCC EC50, MM.1R cells, primary healthy donor human NK cells [2]: 0.005 nM | ADCP EC50, H929 cells, M1-macrophages [2]: 0.05 nM | ADCP EC50, MM.1R cells, M1-macrophages [2]: 0.05 nM | CDC EC50, AMO-1 cells, CellTiter-Glo, 40% human serum [2]: 35.3 nM | CDC EC50, JIM-3 cells, CellTiter-Glo, 40% human serum [2]: 13.1 nM | CDC EC50, MM.1R cells, CellTiter-Glo, 40% human serum [2]: 8.77 nM | Kd [3]: 77 nM | koff [3]: 0.00169 s⁻¹ | kon [3]: 22000 M⁻¹ s⁻¹ | Kd [4]: 1880 nM | koff [4]: 0.0179 s⁻¹ | kon [4]: 9520 M⁻¹ s⁻¹ | Fold increase in binding (vs wt IgG1 control) [5]: 33.2 fold | Kd [5]: 11.9 nM | koff [5]: 0.034 s⁻¹ | kon [5]: 2.86e+06 M⁻¹ s⁻¹ | Fold increase in binding (vs wt IgG1 control) [6]: 111 fold | Kd [6]: 8.1 nM | koff [6]: 0.0232 s⁻¹ | kon [6]: 2.85e+06 M⁻¹ s⁻¹ | Fold increase in binding (vs wt IgG1 control) [7]: 1.5 fold | Kd [7]: 1 nM | koff [7]: 0.000659 s⁻¹ | kon [7]: 647000 M⁻¹ s⁻¹ | Fold increase in binding (vs wt IgG1 control) [8]: 50.7 fold | Kd [8]: 75 nM | koff [8]: 0.167 s⁻¹ | kon [8]: 2.24e+06 M⁻¹ s⁻¹ | Fold increase in binding (vs wt IgG1 control) [9]: 2.2 fold | Kd [9]: 1.3 nM | koff [9]: 0.000738 s⁻¹ | kon [9]: 567000 M⁻¹ s⁻¹ | Kd [10]: 84 nM | koff [10]: 0.00148 s⁻¹ | kon [10]: 18000 M⁻¹ s⁻¹ | Fold increase in binding (vs wt IgG1 control) [11]: 0.8 fold | Kd [11]: 5400 nM | Fold increase in binding (vs wt IgG1 control) [12]: 1 fold | Kd [12]: 11600 nM | Fold increase in binding (vs wt IgG1 control) [13]: 2.5 fold | Kd [13]: 3710 nM | Fold increase in binding (vs wt IgG1 control) [14]: 0.9 fold | Kd [14]: 8820 nM
B1: GC5B1552.AFU (antibody, human IgG1, kappa)
chain: DKTHTCPPCPAPELLGGPSVFLFPPKPEDTLMISRTPEVTCVVVDVSHEDPEVKFNWYVDGVEVHNAKTKPREEQYNSTYRVVSVLTVLHQDWLNGKEYKCKVSNKALPAPIEKTISKAKGQPREPQVYTLPPSREEMTKNQVSLWCLVKGFYPSDIAVEWESNGQPENNYKTTPPVLDSDGSFFLYSKLTVDKSRWQQGNVFSCSVMHEALHNHYRQKSLSLSPGK
heavy: not shown
light: DIQMTQSPSSLSASVGDRVTITCRASQGIRNDLGWYQQKPGKAPKRLIYAASSLQSGVPSRFSGSGSGTEFTLTISSLQPEDFATYYCLQRNTYPLTFGGGTKVEIKRTVAAPSVFIFPPSDEQLKSGTASVVCLLNNFYPREAKVQWKVDNALQSGNSQESVTEQDSKDSTYSLSSTLTLSKADYEKHKVYACEVTHQGLSSPVTKSFNRGEC
notes: expressed in a FUT8 knockout CHO host, so the Fc glycan is afucosylated; also called GC5B1552.AFU.003; GC5B1552.AFU.001

EC50 [15]: 3.2 nM | EC50 [16]: 1.3 nM
B2: GC5B1552 (antibody)
chain: B1 chain
heavy: not shown
light: B1 light
notes: Monovalent JAWA (K248E/T437R) antibody as named without the .AFU suffix
